From patent US20210388087A1 (Chugai, published 2021) come the findings set out here.

Sequences and labels used below:
T1: Human CD3eg linker (human)
T1 construct: Single-chain construct; also called recombinant human CD3
T1 chain: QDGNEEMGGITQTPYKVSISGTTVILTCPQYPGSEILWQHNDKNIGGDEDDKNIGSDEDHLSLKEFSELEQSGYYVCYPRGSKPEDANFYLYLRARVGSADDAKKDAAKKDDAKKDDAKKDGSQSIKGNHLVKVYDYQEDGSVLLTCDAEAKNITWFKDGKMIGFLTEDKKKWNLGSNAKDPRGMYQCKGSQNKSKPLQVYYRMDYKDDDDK

B1: H183/L072 VL S26A (antibody, name in Kabat numbering, V domains shown)
VH: QVQLVESGGGLVQPGRSLRLSCAASGFTFSNAWMHWVRQAPGKGLEWVAQIKDKGNAYAAYYAPSVKGRFTISRDDSKNSIYLQMNSLKTEDTAVYYCHYVHYASASTVLPAFGVDAWGQGTTVTVSS
VL: DIVMTQSPLSLPVTPGEPASISCQAAQELVHMNRNTYLHWYQQKPGQAPRLLIYKVSNRFPGVPDRFSGSGSGTDFTLKISRVEAEDVGVYYCAQGTSVPFTFGQGTKLEIK
B2: H183/L072 VL A25D (antibody, name in Kabat numbering, V domains shown)
VH: B1 VH
VL: B1 VL with A25D, A26S
B3: H183/L072 VL A25M (antibody, name in Kabat numbering, V domains shown)
VH: B1 VH
VL: B1 VL with A25M, A26S
B4: H183/L072 VL A25R (antibody, name in Kabat numbering, V domains shown)
VH: B1 VH
VL: B1 VL with A25R, A26S
B5: H183/L072 VL A25E (antibody, name in Kabat numbering, V domains shown)
VH: B1 VH
VL: B1 VL with A25E, A26S
B6: H183/L072 VL A25G (antibody, name in Kabat numbering, V domains shown)
VH: B1 VH
VL: B1 VL with A25G, A26S
B7: H183/L072 VL A25Q (antibody, name in Kabat numbering, V domains shown)
VH: B1 VH
VL: B1 VL with A25Q, A26S
B8: H183/L072 VL A25S (antibody, name in Kabat numbering, V domains shown)
VH: B1 VH
VL: B1 VL with A25S, A26S
B9: H183/L072 VL A25K (antibody, name in Kabat numbering, V domains shown)
VH: B1 VH
VL: B1 VL with A25K, A26S
B10: H183/L072 VL A25H (antibody, name in Kabat numbering, V domains shown)
VH: B1 VH
VL: B1 VL with A25H, A26S
B11: H183/L072 VL A25I (antibody, name in Kabat numbering, V domains shown)
VH: B1 VH
VL: B1 VL with A25I, A26S
B12: H183/L072 VL A25N (antibody, name in Kabat numbering, V domains shown)
VH: B1 VH
VL: B1 VL with A25N, A26S
B13: H183/L072 VL A25T (antibody, name in Kabat numbering, V domains shown)
VH: B1 VH
VL: B1 VL with A25T, A26S
B14: H183/L072 VL A25P (antibody, name in Kabat numbering, V domains shown)
VH: B1 VH
VL: B1 VL with A25P, A26S
B15: H183/L072 VL V94D (antibody, name in Kabat numbering, V domains shown)
VH: B1 VH
VL: B1 VL with A26S, V99D
notes: Dual-Ig
B16: H183/L072 VL V94E (antibody, name in Kabat numbering, V domains shown)
VH: B1 VH
VL: B1 VL with A26S, V99E
notes: Dual-Ig
B17: H183/L072 VL V94M (antibody, name in Kabat numbering, V domains shown)
VH: B1 VH
VL: B1 VL with A26S, V99M
notes: Dual-Ig
B18: H183/L072 VL V94L (antibody, name in Kabat numbering, V domains shown)
VH: B1 VH
VL: B1 VL with A26S, V99L
notes: Dual-Ig
B19: H183/L072 VL V94G (antibody, name in Kabat numbering, V domains shown)
VH: B1 VH
VL: B1 VL with A26S, V99G
notes: Dual-Ig
B20: H183/L072 VL V94I (antibody, name in Kabat numbering, V domains shown)
VH: B1 VH
VL: B1 VL with A26S, V99I
notes: Dual-Ig
B21: H183/L072 VL V94S (antibody, name in Kabat numbering, V domains shown)
VH: B1 VH
VL: B1 VL with A26S, V99S
notes: Dual-Ig
B22: H183/L072 VL V94H (antibody, name in Kabat numbering, V domains shown)
VH: B1 VH
VL: B1 VL with A26S, V99H
notes: Dual-Ig
B23: H183/L072 VL Y32G (antibody, name in Kabat numbering, V domains shown)
VH: B1 VH
VL: B1 VL with A26S, Y37G
notes: Dual-Ig
B24: H183/L072 VL V94N (antibody, name in Kabat numbering, V domains shown)
VH: B1 VH
VL: B1 VL with A26S, V99N
notes: Dual-Ig
B25: H183/L072 VL Y32M (antibody, name in Kabat numbering, V domains shown)
VH: B1 VH
VL: B1 VL with A26S, Y37M
notes: Dual-Ig
B26: H183/L072 VL V94T (antibody, name in Kabat numbering, V domains shown)
VH: B1 VH
VL: B1 VL with A26S, V99T
notes: Dual-Ig
B27: H183/L072 VL Y32W (antibody, name in Kabat numbering, V domains shown)
VH: B1 VH
VL: B1 VL with A26S, Y37W
notes: Dual-Ig
B28: H183/L072 VL Y32L (antibody, name in Kabat numbering, V domains shown)
VH: B1 VH
VL: B1 VL with A26S, Y37L
notes: Dual-Ig
B29: H183/L072 VL Y32H (antibody, name in Kabat numbering, V domains shown)
VH: B1 VH
VL: B1 VL with A26S, Y37H
notes: Dual-Ig
B30: H183/L072 VL Y32A (antibody, name in Kabat numbering, V domains shown)
VH: B1 VH
VL: B1 VL with A26S, Y37A
notes: Dual-Ig
B31: H183/L072 VL Y32I (antibody, name in Kabat numbering, V domains shown)
VH: B1 VH
VL: B1 VL with A26S, Y37I
notes: Dual-Ig
B32: H183/L072 VL V94F (antibody, name in Kabat numbering, V domains shown)
VH: B1 VH
VL: B1 VL with A26S, V99F
notes: Dual-Ig
B33: H183/L072 VL Y32Q (antibody, name in Kabat numbering, V domains shown)
VH: B1 VH
VL: B1 VL with A26S, Y37Q
notes: Dual-Ig
B34: H183/L072 VL V94Q (antibody, name in Kabat numbering, V domains shown)
VH: B1 VH
VL: B1 VL with A26S, V99Q
notes: Dual-Ig
B35: H183/L072 VL V94R (antibody, name in Kabat numbering, V domains shown)
VH: B1 VH
VL: B1 VL with A26S, V99R
notes: Dual-Ig
B36: H183/L072 VL Y32V (antibody, name in Kabat numbering, V domains shown)
VH: B1 VH
VL: B1 VL with A26S, Y37V
notes: Dual-Ig
B37: H183/L072 VL Y32P (antibody, name in Kabat numbering, V domains shown)
VH: B1 VH
VL: B1 VL with A26S, Y37P
notes: Dual-Ig
B38: H183/L072 VL Y32F (antibody, name in Kabat numbering, V domains shown)
VH: B1 VH
VL: B1 VL with A26S, Y37F
notes: Dual-Ig
B39: H183/L072 VL V94W (antibody, name in Kabat numbering, V domains shown)
VH: B1 VH
VL: B1 VL with A26S, V99W
notes: Dual-Ig
B40: H183/L072 VL V94K (antibody, name in Kabat numbering, V domains shown)
VH: B1 VH
VL: B1 VL with A26S, V99K
notes: Dual-Ig
B41: H183/L072 VL Y32N (antibody, name in Kabat numbering, V domains shown)
VH: B1 VH
VL: B1 VL with A26S, Y37N
notes: Dual-Ig
B42: H183/L072 VL V94P (antibody, name in Kabat numbering, V domains shown)
VH: B1 VH
VL: B1 VL with A26S, V99P
notes: Dual-Ig

Residue numbers refer to the chain shown, from its start. Names may count otherwise.

T2 sequence (chain, as listed by the source limits assumed): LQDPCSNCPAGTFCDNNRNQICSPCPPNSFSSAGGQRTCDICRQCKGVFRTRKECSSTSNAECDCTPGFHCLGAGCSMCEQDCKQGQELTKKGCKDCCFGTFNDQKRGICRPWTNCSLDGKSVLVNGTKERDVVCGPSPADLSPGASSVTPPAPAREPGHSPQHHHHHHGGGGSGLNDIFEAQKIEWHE

For the first experiment, the target named is T1, Human CD3eg linker. The experiment is described as follows: SPR; fold vs parent H183/L072. In general terms: In SPR one partner is held on a chip, and binding of the other changes the refractive index at the surface.
As to B1, the “fold change of affinity” value is 0.8 fold.

Turning to B2, the “fold change of affinity” value was 0 fold.

For B3, the “fold change of affinity” value worked out at 0 fold.

On to B4, for which the “fold change of affinity” value turned out to be 0 fold.

Consider B5, for which the “fold change of affinity” value is 0 fold.

B6: the “fold change of affinity” value came to 0.9 fold.

With B7, the “fold change of affinity” value was determined as 0 fold.

In the case of B8, the “fold change of affinity” value is 1.3 fold.

Regarding B9, the “fold change of affinity” value came to 0 fold.

For B10, the “fold change of affinity” value was determined as 0 fold.

For B11, the “fold change of affinity” value was determined as 0.3 fold.

On to B12, for which the “fold change of affinity” value is 0.5 fold.

For B13, the “fold change of affinity” value was 1.1 fold.

As to B14, the “fold change of affinity” value is 1.2 fold.

Another experiment concerns the target T2, Human CD137 ECD (human).
T2 construct: entry includes C-terminal His-tag and biotin acceptor peptide; also called human CD137 extracellular domain; 4-1BB
The experiment is described as follows: Biacore SPR, vs parent H183/L072.
As for B15, the “fold change of affinity” value was found to be 0 fold.

Turning to B16, the “fold change of affinity” value turned out to be 0 fold.

As for B17, the “fold change of affinity” value was determined as 0.7 fold.

Turning to B18, the “fold change of affinity” value was found to be 0.3 fold.

Take B19: the “fold change of affinity” value was determined as 0 fold.

Take B20: the “fold change of affinity” value was found to be 0.7 fold.

In the case of B21, the “fold change of affinity” value was 0 fold.

B22: the “fold change of affinity” value came out at 1.8 fold.

Regarding B23, the “fold change of affinity” value was determined as 0.1 fold.

Regarding B24, the “fold change of affinity” value was 0.2 fold.

Take B25: the “fold change of affinity” value worked out at 0 fold.

B26: the “fold change of affinity” value was determined as 0.4 fold.

On to B27, for which the “fold change of affinity” value was determined as 0.7 fold.

In the case of B28, the “fold change of affinity” value was 0.2 fold.

As to B29, the “fold change of affinity” value turned out to be 0.1 fold.

As to B30, the “fold change of affinity” value amounted to 0.1 fold.

For B31, the “fold change of affinity” value worked out at 0 fold.

B32: the “fold change of affinity” value is 0 fold.

B33: the “fold change of affinity” value is 0.2 fold.

As to B34, the “fold change of affinity” value came out at 0.8 fold.

As for B35, the “fold change of affinity” value stood at 0.4 fold.

B36: the “fold change of affinity” value is 0 fold.

With B37, the “fold change of affinity” value came to 0 fold.

As for B38, the “fold change of affinity” value came to 1.7 fold.

On to B39, for which the “fold change of affinity” value stood at 0 fold.

With B40, the “fold change of affinity” value was determined as 0.1 fold.

For B41, the “fold change of affinity” value stood at 0.2 fold.

Regarding B42, the “fold change of affinity” value was 0.1 fold.
